Measurements published in US20230201308A1, “TREATMENT OF CORONAVIRUS INFECTION WITH […]” (Eiger Biopharmaceuticals, Inc., priority 2020, published 2023).
Where two headings read alike, the source gives them in different places.

System: SARS-CoV-2
Conditions: for All cause death or hospitalization for COVID-19: Bayes prob, Dichotomous / All cause death or hospitalization for COVID-19: Bayes prob, TTE / All cause death or hospitalization for COVID-19: HR (95% CrI), TTE / All cause death or hospitalization for COVID-19: RR (95% CrI), Dichotomous / ER visit ≥6 h or hospitalization due to COVID-19: Bayes prob, Dichotomous / ER visit ≥6 h or hospitalization due to COVID-19: Bayes prob, TTE / ER visit ≥6 h or hospitalization due to COVID-19: HR (95% CrI), TTE / ER visit ≥6 h or hospitalization due to COVID-19: RR (95% CrI), Dichotomous: vs placebo
[1] = ITT preliminary, n=916 vs placebo 1020, 28 days
[2] = ITT preliminary, n=916 vs placebo 1020, 28 days, listed as Interferon lambda
[3] = ITT preliminary, n=916 vs placebo 1020, 28 days, listed as Lambda
[4] = Treated within 3 days of symptom onset, n=539 vs placebo 586
[5] = Treated within 5 days of symptom onset, n=800 vs placebo 879

B1: pegylated interferon lambda-1a (protein)
chain: MKPTTTGKGCHIGRFKSLSPQELASFKKARDALEESLKLKNWSCSSPVFPGNWDLRLLQVRERPVALEAELALTLKVLEAAAGPALEDVLDQPLHTLHHILSQLQACIQPQPTAGPRPRGRLHHWLHRLQEAPKKESAGCLEASVTFNLFRLLTRDLKYVADGNLSLRTSTHPEST
modifications: PEG
notes: 180 mcg subcutaneous injection
In the case of B1, the “Death or hospitalization due to COVID-19, % of patients” value [1] is reported as “(2.4%)”, the “Death or hospitalization due to COVID-19, RR (95% CrI) vs placebo” value [1] is reported as 0.61 (0.36, 0.99) and the “Hospitalization for COVID-19, RR (95% CrI) vs placebo” value [1] is reported as 0.58 (0.34, 0.95). For the same molecule, the “Hospitalization or ER (any duration) for COVID-19, % of patients” value [1] was “(10.6%)”, the “Hospitalization or ER (any duration) for COVID-19, Pr (Superiority)” value [1] was 0.984 and the “Hospitalization or ER (any duration) for COVID-19, RR (95% CrI) vs placebo” value [1] was 0.77 (0.60, 0.98). The “Hospitalization or ER ≥6 h for COVID-19, Pr (Superiority)” value [1] was 0.999, the “Hospitalization or ER ≥6 h for COVID-19, RR (95% CrI) vs placebo” value [1] was 0.50 (0.31, 0.77) and the “Death due to COVID-19, % of patients” value [2] was “(0.1%)”. The “Hospitalization for COVID-19, % of patients” value [2] was “(2.3%)”, the “Hospitalization or ER ≥6 h for COVID-19, % of patients” value [2] was “(2.7%)” and the “Death due to COVID-19, % of patients” value [3] was 0.1%. The “Hospitalization for COVID-19, % of patients” value [3] was 2.3%, the “Hospitalization or ER ≥6 h for COVID-19, % of patients” value [3] was 2.7% and the “All cause death or hospitalization for COVID-19: events/patients” value (Omicron and not vaccinated) was 0/9. The “ER visit ≥6 h or hospitalization due to COVID-19: events/patients” value (Omicron and not vaccinated) was 0/9, the “All cause death or hospitalization for COVID-19: Bayes prob, Dichotomous” value (Omicron and not vaccinated) was 0.532 and the “All cause death or hospitalization for COVID-19: Bayes prob, TTE” value (Omicron and not vaccinated) was 0.912. For the same molecule, the “All cause death or hospitalization for COVID-19: HR (95% CrI), TTE” value (Omicron and not vaccinated) was 0.00 (0.00, 4.43), the “All cause death or hospitalization for COVID-19: RR (95% CrI), Dichotomous” value (Omicron and not vaccinated) was 0.90 (0.03, 10.04) and the “ER visit ≥6 h or hospitalization due to COVID-19: Bayes prob, Dichotomous” value (Omicron and not vaccinated) was 0.532. For the same molecule, the “ER visit ≥6 h or hospitalization due to COVID-19: Bayes prob, TTE” value (Omicron and not vaccinated) was 0.912, the “ER visit ≥6 h or hospitalization due to COVID-19: HR (95% CrI), TTE” value (Omicron and not vaccinated) was 0.00 (0.00, 4.43) and the “ER visit ≥6 h or hospitalization due to COVID-19: RR (95% CrI), Dichotomous” value (Omicron and not vaccinated) was 0.90 (0.03, 10.04). The “All cause death or hospitalization for COVID-19: events/patients” value (Omicron and onset ≤3 days) was 0/281, the “ER visit ≥6 h or hospitalization due to COVID-19: events/patients” value (Omicron and onset ≤3 days) was 0/281 and the “All cause death or hospitalization for COVID-19: Bayes prob, Dichotomous” value (Omicron and onset ≤3 days) was 0.977. For the same molecule, the “All cause death or hospitalization for COVID-19: Bayes prob, TTE” value (Omicron and onset ≤3 days) was 0.9982, the “All cause death or hospitalization for COVID-19: HR (95% CrI), TTE” value (Omicron and onset ≤3 days) was 0.00 (0.00, 0.35) and the “All cause death or hospitalization for COVID-19: RR (95% CrI), Dichotomous” value (Omicron and onset ≤3 days) was 0.14 (0.00, 0.96). The “ER visit ≥6 h or hospitalization due to COVID-19: Bayes prob, Dichotomous” value (Omicron and onset ≤3 days) was 0.998, the “ER visit ≥6 h or hospitalization due to COVID-19: Bayes prob, TTE” value (Omicron and onset ≤3 days) was 0.9999 and the “ER visit ≥6 h or hospitalization due to COVID-19: HR (95% CrI), TTE” value (Omicron and onset ≤3 days) was 0.00 (0.00, 0.17). For the same molecule, the “ER visit ≥6 h or hospitalization due to COVID-19: RR (95% CrI), Dichotomous” value (Omicron and onset ≤3 days) was 0.08 (0.00, 0.50), the “All cause death or hospitalization for COVID-19: events/patients” value (Omicron and vaccinated) was 2/428 and the “ER visit ≥6 h or hospitalization due to COVID-19: events/patients” value (Omicron and vaccinated) was 2/428. The “All cause death or hospitalization for COVID-19: Bayes prob, Dichotomous” value (Omicron and vaccinated) was 0.876, the “All cause death or hospitalization for COVID-19: Bayes prob, TTE” value (Omicron and vaccinated) was 0.911 and the “All cause death or hospitalization for COVID-19: HR (95% CrI), TTE” value (Omicron and vaccinated) was 0.34 (0.05, 1.52). The “All cause death or hospitalization for COVID-19: RR (95% CrI), Dichotomous” value (Omicron and vaccinated) was 0.46 (0.09, 1.69), the “ER visit ≥6 h or hospitalization due to COVID-19: Bayes prob, Dichotomous” value (Omicron and vaccinated) was 0.999 and the “ER visit ≥6 h or hospitalization due to COVID-19: Bayes prob, TTE” value (Omicron and vaccinated) was 0.9998. The “ER visit ≥6 h or hospitalization due to COVID-19: HR (95% CrI), TTE” value (Omicron and vaccinated) was 0.11 (0.02, 0.42), the “ER visit ≥6 h or hospitalization due to COVID-19: RR (95% CrI), Dichotomous” value (Omicron and vaccinated) was 0.17 (0.04, 0.53) and the “All cause death or hospitalization for COVID-19: events/patients” value (Omicron subgroup) was 2/439. The “ER visit ≥6 h or hospitalization due to COVID-19: events/patients” value (Omicron subgroup) was 2/439, the “All cause death or hospitalization for COVID-19: Bayes prob, Dichotomous” value (Omicron subgroup) was 0.914 and the “All cause death or hospitalization for COVID-19: Bayes prob, TTE” value (Omicron subgroup) was 0.9477. For the same molecule, the “All cause death or hospitalization for COVID-19: HR (95% CrI), TTE” value (Omicron subgroup) was 0.29 (0.04, 1.27), the “All cause death or hospitalization for COVID-19: RR (95% CrI), Dichotomous” value (Omicron subgroup) was 0.41 (0.08, 1.45) and the “ER visit ≥6 h or hospitalization due to COVID-19: Bayes prob, Dichotomous” value (Omicron subgroup) was greater than 0.9999. For the same molecule, the “ER visit ≥6 h or hospitalization due to COVID-19: Bayes prob, TTE” value (Omicron subgroup) was 0.9999, the “ER visit ≥6 h or hospitalization due to COVID-19: HR (95% CrI), TTE” value (Omicron subgroup) was 0.11 (0.02, 0.43) and the “ER visit ≥6 h or hospitalization due to COVID-19: RR (95% CrI), Dichotomous” value (Omicron subgroup) was 0.17 (0.04, 0.50). For the same molecule, the “risk reduction, hospitalization alone” value (Phase 3 study, single s.c. dose within 7 days of symptom onset) was 44%, the “Log odds (95% CrI) vs Placebo, Bayesian logistic regression” value (Table 11 Model 1: Treatment alone) was −0.69 (−1.17, −0.26) and the “Log odds vs Placebo, Bayesian logistic regression” value (Table 11 Model 2: Unvaccinated as an effect-modifier) was −0.67. For the same molecule, the “OR (95% CrI) vs Placebo, Bayesian logistic regression” value (Table 12 Model 1: Treatment alone) was 0.50 (0.31, 0.77), the “OR (95% CrI) vs Placebo, Bayesian logistic regression” value (Table 12 Model 2: Treatment + Vaccination) was 0.49 (0.29, 0.78) and the “OR (95% CrI) vs Placebo, Bayesian logistic regression” value (Table 12 Model 3: Treatment + Vaccination + Early onset (≤3 days)) was 0.48 (0.29, 0.77). For the same molecule, the “OR (95% CrI) vs Placebo, Bayesian logistic regression” value (Table 12 Model 4: Treatment + Vaccination + Early onset (≤5 days)) was 0.48 (0.29, 0.77), the “Death due to COVID-19, % of patients” value [4] was “(0%)” and the “Death due to COVID-19, RR (95% CrI) vs placebo” value [4] was 0.21 (0.01, 1.66). The “Death or hospitalization due to COVID-19, % of patients” value [4] was “(1.5%)”, the “Death or hospitalization due to COVID-19, RR (95% CrI) vs placebo” value [4] was 0.40 (0.18, 0.83) and the “Hospitalization for COVID-19, % of patients” value [4] was “(1.5%)”. The “Hospitalization for COVID-19, RR (95% CrI) vs placebo” value [4] was 0.40 (0.18, 0.82), the “Hospitalization or ER (any duration) for COVID-19, % of patients” value [4] was “(10%)” and the “Hospitalization or ER (any duration) for COVID-19, Pr (Superiority)” value [4] was 0.964. For the same molecule, the “Hospitalization or ER (any duration) for COVID-19, RR (95% CrI) vs placebo” value [4] was 0.75 (0.54, 1.03), the “Hospitalization or ER ≥6 h for COVID-19, % of patients” value [4] was “(2%)” and the “Hospitalization or ER ≥6 h for COVID-19, Pr (Superiority)” value [4] was 0.996. For the same molecule, the “Hospitalization or ER ≥6 h for COVID-19, RR (95% CrI) vs placebo” value [4] was 0.43 (0.21, 0.81), the “Death due to COVID-19, % of patients” value [5] was “(0.1%)” and the “Death due to COVID-19, RR (95% CrI) vs placebo” value [5] was 0.39 (0.05, 1.96). The “Death or hospitalization due to COVID-19, % of patients” value [5] was “(2.2%)”, the “Death or hospitalization due to COVID-19, RR (95% CrI) vs placebo” value [5] was 0.56 (0.32, 0.96) and the “Hospitalization for COVID-19, % of patients” value [5] was “(2.1%)”. For the same molecule, the “Hospitalization for COVID-19, RR (95% CrI) vs placebo” value [5] was 0.53 (0.29, 0.91), the “Hospitalization or ER (any duration) for COVID-19, % of patients” value [5] was “(10.2%)” and the “Hospitalization or ER (any duration) for COVID-19, Pr (Superiority)” value [5] was 0.992.
